Measurements taken from PMC8284803.
Where two headings read alike, the source gives them in different places.

B1: HJ (Holliday junction) (structured_DNA)
DNA 1: CTAGTATAGAGCCGGCGCGCCATGTCTAGATAGCGTTAGGTCTGCCGAATAGTACTACTCGGATCCCGAGCGAACCACGC
DNA 2: GCGTGGTTCGCTCGGGATCCGAGTAGTACTATTCGGCAGAGGATTCGAATAGGCCTAATCGAATTCCGCCATCGATGCAC
DNA 3: GTGCATCGATGGCGGAATTCGATTAGGCCTATTCGAATCCAGACGCGAGTAGATCTTCACGGTACCCGCGGTTACCCGTG
DNA 4: CACGGGTAACCGCGGGTACCGTGAAGATCTACTCGCGTCTCCTAACGCTATCTAGACATGGCGCGCCGGCTCTATACTAG
B2: 80mer with 5 nt gap (mixed)
DNA 1: B1 DNA 1
DNA 2: GCGTGGTTCGCTCGGGATCCGAGTAGTACTATTCGG
DNA 3: CTAACGCTATCTAGACATGGCGCGCCGGCTCTATACTAG
B3: gHJ (gapped HJ) (structured_DNA)
DNA 1: B1 DNA 1
DNA 2: B1 DNA 2
DNA 3: B1 DNA 3
DNA 4: CACGGGTAACCGCGGGTACCGTGAAGATCTACTCGCGTCTCCTAA
DNA 5: CCGGCTCTATACTAG
B4: 80mer with 40 nt gap (mixed)
DNA 1: B1 DNA 1
DNA 2: GCGTGGTTCGCTCGGGATCC
DNA 3: GCGCGCCGGCTCTATACTAG
B5: 80mer with 10 nt gap (mixed)
DNA 1: B1 DNA 1
DNA 2: GCGTGGTTCGCTCGGGATCCGAGTAGTACTATTCG
DNA 3: CGCTATCTAGACATGGCGCGCCGGCTCTATACTAG
B6: 80mer with 20 nt gap (mixed)
DNA 1: B1 DNA 1
DNA 2: GCGTGGTTCGCTCGGGATCCGAGTAGTACT
DNA 3: TCTAGACATGGCGCGCCGGCTCTATACTAG

Legend:
Experiment in all cases: EMSA
[1] = target: hMSH4 (hMutSγ subunit);hMSH5 (hMutSγ subunit) (Homo sapiens;Homo sapiens, UniProt O15457;O43196 1-936;1-834, |)
[2] = target: T1, hMLH1 (hMutLγ subunit);hMLH3 (hMutLγ subunit) (Homo sapiens;Homo sapiens, UniProt P40692;Q9UHC1 1-756;1-1453, |)
[3] = target: T1, hMLH1 (hMutLγ subunit);hMLH3 (hMutLγ …); remark: listed apart in the source
[4] = target: T1, hMLH1 (hMutLγ subunit);hMLH3 (hMutLγ …); remark: listed apart in the source

| Binder | Kd [2] [nM] | binding result [3] | further results |
| --- | --- | --- | --- |
| B1 | ~38 |  | binding result [1]: binds |
| B2 |  | no binding |  |
| B3 | ~16 |  |  |
| B4 |  |  | binding result [4]: binds |
| B5 |  | no binding |  |
| B6 |  | binds |  |
